# Assay results: PMC9317960 (Biochemical Journal, 2022)
# What was measured:
# [1] = system: a wide range of different PDZ domains; conditions: cited from earlier work
# [2] = biological target: T1, Human Scribble (SCRIB) PDZ3 domain (1002-1094) (human, UniProt Q14160 1002-1094); experiment: ITC; conditions: both partners purified
# T1 sequence (looked up): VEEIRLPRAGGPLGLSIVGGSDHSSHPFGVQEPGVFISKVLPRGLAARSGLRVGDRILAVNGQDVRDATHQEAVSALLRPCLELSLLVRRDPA
molecule,measurement,setting,value
"RSWFETWV [Superpeptide, used as a positive control]","affinity towards PDZ domains, in words",[1],affinity towards a wide range of different PDZ domains
LRLESSII [TBEV NS5_CTN peptide (C-terminal PBM of NS5)],Kd,[2],18.4 µM
same,dH,[2],-1.1 kcal/mol
same,stoichiometry N,[2],1
